Experimental data taken from US20160009788A1 (UNITED STATES OF AMERICA AS REPRESENTED BY THE SECRETARY …, published 2016).
Where a chain is given by its changes, count along the chain named.

Columns and labels:
[1] = target: T1, bovine serum albumin (bovine, UniProt P02769 25-607); assay: ELISA, antigen on the solid phase, soluble Fab
T1 construct: Control antigen; also called BSA

[2] = target: T2, NV VP1 G365N/V370I double mutant (Norwalk virus, UniProt Q83884 1-530); assay: immunofluorescence on transfected Vero cells
T2 construct: whole, on cells; Expressed in transfected Vero cells, methanol-fixed, immunofluorescence
T2 sequence (looked up): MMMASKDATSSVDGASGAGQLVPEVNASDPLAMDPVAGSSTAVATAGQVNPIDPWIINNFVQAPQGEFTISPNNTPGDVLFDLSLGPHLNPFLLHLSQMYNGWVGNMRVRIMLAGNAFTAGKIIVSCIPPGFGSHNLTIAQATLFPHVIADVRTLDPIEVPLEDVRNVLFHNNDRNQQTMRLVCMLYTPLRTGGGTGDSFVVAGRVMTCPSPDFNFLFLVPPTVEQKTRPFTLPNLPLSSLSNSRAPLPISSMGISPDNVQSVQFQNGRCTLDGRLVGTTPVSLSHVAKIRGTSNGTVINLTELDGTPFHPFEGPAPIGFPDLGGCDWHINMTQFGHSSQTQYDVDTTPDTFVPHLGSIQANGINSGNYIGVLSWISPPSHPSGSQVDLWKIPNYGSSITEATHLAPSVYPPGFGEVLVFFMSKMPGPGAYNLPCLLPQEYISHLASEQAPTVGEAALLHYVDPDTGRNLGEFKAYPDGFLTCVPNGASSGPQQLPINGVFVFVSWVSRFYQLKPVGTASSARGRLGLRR

[3] = target: T3, NV VP1 G365N/V370I/I376V triple mutant (Norwalk virus, UniProt Q83884 1-530); assay: immunofluorescence on transfected Vero cells
T3 construct: whole, on cells; Expressed in transfected Vero cells, methanol-fixed, immunofluorescence
T3 sequence (looked up): T2 sequence (looked up) with I376V

[4] = target: T4, NV VP1 G365N/I376V double mutant (Norwalk virus, UniProt Q83884 1-530); assay: immunofluorescence on transfected Vero cells
T4 construct: whole, on cells; Expressed in transfected Vero cells, methanol-fixed, immunofluorescence
T4 sequence (looked up): T2 sequence (looked up) with I370V, I376V

[5] = target: T5, NV VP1 G365N mutant (Norwalk virus, UniProt Q83884 1-530); assay: immunofluorescence on transfected Vero cells
T5 construct: whole, on cells; Expressed in transfected Vero cells, methanol-fixed, immunofluorescence
T5 sequence (looked up): T2 sequence (looked up) with I370V

[6] = target: T6, Norwalk virus (NV, GI.1) recombinant virus-like particles (capsid protein VP1) (Norwalk virus, UniProt Q83884 1-530); assay: SPR (Biacore 1000), NV rVLP amine-coupled to CM5 chip, Fab as analyte 1-10 nM, Langmuir model
T6 construct: also called NV rVLP; NV-VLP
T6 sequence: T2 sequence (looked up) with N365G, I370V

T1 sequence (P02769 25-607 limits assumed): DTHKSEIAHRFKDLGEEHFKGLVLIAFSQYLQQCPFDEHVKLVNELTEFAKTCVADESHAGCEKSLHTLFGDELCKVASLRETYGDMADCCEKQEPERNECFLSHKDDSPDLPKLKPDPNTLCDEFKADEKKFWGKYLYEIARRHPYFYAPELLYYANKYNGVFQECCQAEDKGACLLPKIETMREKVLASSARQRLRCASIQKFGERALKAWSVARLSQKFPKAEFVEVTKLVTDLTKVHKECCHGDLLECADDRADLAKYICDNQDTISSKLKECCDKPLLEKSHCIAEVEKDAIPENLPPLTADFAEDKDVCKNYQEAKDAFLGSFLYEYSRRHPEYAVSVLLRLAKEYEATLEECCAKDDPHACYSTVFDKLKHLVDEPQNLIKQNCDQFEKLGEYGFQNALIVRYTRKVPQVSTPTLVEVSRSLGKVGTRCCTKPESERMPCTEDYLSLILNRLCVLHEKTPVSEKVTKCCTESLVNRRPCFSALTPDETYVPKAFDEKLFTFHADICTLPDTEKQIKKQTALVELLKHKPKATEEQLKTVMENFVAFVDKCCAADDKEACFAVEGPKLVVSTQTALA

B1: anti-NV Fab G4 (Fab, V domains shown)
VH: EVQLEESGGGLVKPGGSLRLSCAASGFTFSHYVMYWVRQAPEKGLEWVSTISGSGSSTWYPDSVKGRFTVSRDNSKNTLYLQMNSLRGDDTAVYYCARLQGQLVYWGLGTLVTVS
VL: ELQMTQSPSTLSASVGDRVTITCRASQGISSWLAWYQQKPGRAPKLLIYKSSTLESGVPSRFSGSGSGTEFTLTISSLQPDDFATYFCQQYSSNPPLTFGGGTKVEIKR
notes: also called Norwalk Fab G4
binding result [1]: no binding | binding result [2]: no binding (tested: 5 ug/mL) | binding result [3]: no binding (tested: 5 ug/mL) | binding result [4]: no binding (tested: 5 ug/mL) | binding result [5]: no binding (tested: 5 ug/mL) | Kd [6]: 0.974 nM | koff [6]: 0.00142 s⁻¹ | kon [6]: 1.46e+06 M⁻¹ s⁻¹
